This passage reports Kd and response units results from publication doi:10.1101/2020.02.29.971473.

In this assay the target is human PCNA, purified (immobilised on the GLC chip) (human), P12004. The assay is described as follows: SPR. The conditions noted are these: remark: other sources report otherwise.
Sequence of human PCNA, purified (immobilised on the GLC chip) (human), P12004 (P12004 whole entry): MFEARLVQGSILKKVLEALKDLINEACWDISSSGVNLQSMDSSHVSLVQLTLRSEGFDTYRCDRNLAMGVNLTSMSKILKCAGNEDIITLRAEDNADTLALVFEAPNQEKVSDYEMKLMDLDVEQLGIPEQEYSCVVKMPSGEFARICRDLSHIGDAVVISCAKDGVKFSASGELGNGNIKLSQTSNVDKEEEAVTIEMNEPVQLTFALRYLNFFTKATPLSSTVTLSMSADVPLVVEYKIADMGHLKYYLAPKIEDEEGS

B1: p125 (PolD1), catalytic subunit of human DNA polymerase delta, purified, P28340 1-1107 (natural protein)
chain: MDGKRRPGPGPGVPPKRARGGLWDDDDAPRPSQFEEDLALMEEMEAEHRLQEQEEEELQSVLEGVADGQVPPSAIDPRWLRPTPPALDPQTEPLIFQQLEIDHYVGPAQPVPGGPPPSRGSVPVLRAFGVTDEGFSVCCHIHGFAPYFYTPAPPGFGPEHMGDLQRELNLAISRDSRGGRELTGPAVLAVELCSRESMFGYHGHGPSPFLRITVALPRLVAPARRLLEQGIRVAGLGTPSFAPYEANVDFEIRFMVDTDIVGCNWLELPAGKYALRLKEKATQCQLEADVLWSDVVSHPPEGPWQRIAPLRVLSFDIECAGRKGIFPEPERDPVIQICSLGLRWGEPEPFLRLALTLRPCAPILGAKVQSYEKEEDLLQAWSTFIRIMDPDVITGYNIQNFDLPYLISRAQTLKVQTFPFLGRVAGLCSNIRDSSFQSKQTGRRDTKVVSMVGRVQMDMLQVLLREYKLRSYTLNAVSFHFLGEQKEDVQHSIITDLQNGNDQTRRRLAVYCLKDAYLPLRLLERLMVLVNAVEMARVTGVPLSYLLSRGQQVKVVSQLLRQAMHEGLLMPVVKSEGGEDYTGATVIEPLKGYYDVPIATLDFSSLYPSIMMAHNLCYTTLLRPGTAQKLGLTEDQFIRTPTGDEFVKTSVRKGLLPQILENLLSARKRAKAELAKETDPLRRQVLDGRQLALKVSANSVYGFTGAQVGKLPCLEISQSVTGFGRQMIEKTKQLVESKYTVENGYSTSAKVVYGDTDSVMCRFGVSSVAEAMALGREAADWVSGHFPSPIRLEFEKVYFPYLLISKKRYAGLLFSSRPDAHDRMDCKGLEAVRRDNCPLVANLVTASLRRLLIDRDPEGAVAHAQDVISDLLCNRIDISQLVITKELTRAASDYAGKQAHVELAERMRKRDPGSAPSLGDRVPYVIISAAKGVAAYMKSEDPLFVLEHSLPIDTQYYLEQQLAKPLLRIFEPILGEGRAEAVLLRGDHTRCKTVLTGKVGGLLAFAKRRNCCIGCRTVLSHQGAVCEFCQPRESELYQKEVSHLNALEERFSRLWTQCQRCQGSLHEDVICTSRDCPIFYMRKKVRKDLEDQEQLLRRFGPPGPEAW
As to B1, the Kd came to 100 nM and the response units came out at 90 RU.

The term Kd denotes the equilibrium constant for the complex coming apart. A high value points to weaker binding.
